From publication PMC6138676, “Skeletal Muscle Dystrophy mutant of lamin A alters the structure and dynamics of the Ig fold domain” (Scientific Reports, 2018) come the findings set out here.

The data set deals with the molecule itself. In words: SEC-MALS; 3 mg/ml protein; Superdex 200 Increase 10/300 equilibrated in 25 mM Tris-HCl pH 8.5, 250 mM NaCl; 20 °C; 30 µL injected, 0.6 mL/min. Background: SEC sorts molecules by how far they enter the pores of the column.

B1: Human lamin A Ig (428-552) (domain or fragment, UniProt P02545 428-552, looked up)
chain: SSFSQHARTSGRVAVEEVDEEGKFVRLRNKSNEDQSMGNWQIKRQNGDDPLLTYRFPPKFTLKAGQVVTIWAAGAGATHSPPTDLVWKAQNTWGCGNSLRTALINSTGEEVAMRKLVRSVTVVED
notes: Ig fold domain of human lamin A, residues 428-552, cloned into pQE-80L between BamHI and KpnI; For the NMR experiments the protein was 13C,15N-labelled; also called wild type Ig; Ig fold domain of lamin A; source: E. coli BL21 (DE3) pLysS, purified (His-Trap column)
The stoichiometry N is a count of units in the complex or per binding partner. For the protein B1, the “stoichiometry N” value amounted to 2.
